Laboratory results reported in US20050064507.

Legend:
[1] = biological target: T1, peptide EEAEHKATKARLADK (SEQ ID NO:75) (not fully specified)
T1 chain: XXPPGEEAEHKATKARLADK

[2] = biological target: T2, CDC2L5 peptide SRRRSPSYSRHS (SEQ ID NO:214) (not fully specified)
T2 chain: SRRRSPSYSRHS

[3] = biological target: T3, DOCK2 peptide VKLRRSKKRTKR (SEQ ID NO:170) (not fully specified)
T3 chain: VKLRRSKKRTKR

[4] = biological target: T4, absent in melanoma 1 peptide RSGRRRGSQKS (SEQ ID NO:173) (not fully specified)
T4 chain: RSGRRRGSQKS

[5] = biological target: T5, FLJ20719 peptide RRGRRSTKKRRR (SEQ ID NO:171) (not fully specified)
T5 chain: RRGRRSTKKRRR

[6] = biological target: T6, HePTP peptide EQQRRALSFRQ (SEQ ID NO:200) (not fully specified)
T6 chain: EQQRRALSFRQ

[7] = biological target: T7, CDC2L5 peptide RHSRSRSRHRLS (SEQ ID NO:213) (not fully specified)
T7 chain: RHSRSRSRHRLS

[8] = biological target: T8, serine/threonine-protein kinase PRP4 peptide RGRRSRSRLRRR (SEQ ID NO:199) (not fully specified)
T8 chain: RGRRSRSRLRRR

[9] = biological target: T9, prostaglandin E receptor 4 peptide DFRRRRSFRRIA (SEQ ID NO:186) (not fully specified)
T9 chain: DFRRRRSFRRIA

[10] = biological target: T10, casein kinase I gamma 2 peptide KRRKRKSLQRHK (SEQ ID NO:194) (not fully specified)
T10 chain: KRRKRKSLQRHK

[11] = biological target: T11, supervillin peptide VMKRKFSLRAAE (SEQ ID NO:202) (not fully specified)
T11 chain: VMKRKFSLRAAE

[12] = biological target: T12, MAST3 peptide TQDRRKSLFKKI (SEQ ID NO:201) (not fully specified)
T12 chain: TQDRRKSLFKKI

[13] = biological target: T13, ARHGAP4 peptide PLRKSSLKKGGR (SEQ ID NO:193) (not fully specified)
T13 chain: PLRKSSLKKGGR

[14] = biological target: T14, serine/threonine-protein kinase PRP4 peptide TKKRSKSRSKER (SEQ ID NO:215) (not fully specified)
T14 chain: TKKRSKSRSKER

[15] = biological target: T15, TIAM1 peptide AMSRSASKRRSR (SEQ ID NO:168) (not fully specified)
T15 chain: AMSRSASKRRSR

[16] = biological target: T16, MAST3 peptide ARRSKRSRRRET (SEQ ID NO:183) (not fully specified)
T16 chain: ARRSKRSRRRET

[17] = biological target: T17, DAP-kinase 1 peptide KKRRTKSSRRGV (SEQ ID NO:175) (not fully specified)
T17 chain: KKRRTKSSRRGV

[18] = biological target: T18, BCL10 peptide SCRTSSRKRAGK (SEQ ID NO:216) (not fully specified)
T18 chain: SCRTSSRKRAGK

[19] = biological target: T19, S1P1 receptor peptide RTRSRRLTFRK (SEQ ID NO:169) (not fully specified)
T19 chain: RTRSRRLTFRK

[20] = biological target: T20, GRK6 peptide GNRKGKSKKWRQ (SEQ ID NO:192) (not fully specified)
T20 chain: GNRKGKSKKWRQ

[21] = biological target: T21, NPAT peptide FRASSRSTTK (SEQ ID NO:184) (not fully specified)
T21 chain: FRASSRSTTK

[22] = biological target: T22, CLK2 peptide RRRRRRSRTFSR (SEQ ID NO:177) (not fully specified)
T22 chain: RRRRRRSRTFSR

[23] = biological target: T23, Lyp peptide ILRPSKSVKLRS (SEQ ID NO:197) (not fully specified)
T23 chain: ILRPSKSVKLRS

[24] = biological target: T24, myosin IF peptide KKERRRNSINRN (SEQ ID NO:174) (not fully specified)
T24 chain: KKERRRNSINRN

[25] = biological target: T25, ribosomal protein S6 peptide TGERKRKSVRG (SEQ ID NO:181) (not fully specified)
T25 chain: TGERKRKSVRG

[26] = biological target: T26, BTK peptide ERGRRGSKKGSI (SEQ ID NO:188) (not fully specified)
T26 chain: ERGRRGSKKGSI

[27] = biological target: T27, IDN3 peptide VRRRRSQRISQR (SEQ ID NO:172) (not fully specified)
T27 chain: VRRRRSQRISQR

[28] = biological target: T28, WNK1 peptide KRHYRKSVRSRS (SEQ ID NO:179) (not fully specified)
T28 chain: KRHYRKSVRSRS

[29] = biological target: T29, gap-43 peptide SFRGHITRKKLK (SEQ ID NO:207) (not fully specified)
T29 chain: SFRGHITRKKLK

[30] = biological target: T30, IDN3 peptide VSRPRKSRKRVD (SEQ ID NO:208) (not fully specified)
T30 chain: VSRPRKSRKRVD

[31] = biological target: T31, forkhead (Drosophila)-like 16 peptide RRERSRSRRKQ (SEQ ID NO:176) (not fully specified)
T31 chain: RRERSRSRRKQ

[32] = biological target: T32, BRCA1 peptide LRRKSSTRHIHA (SEQ ID NO:187) (not fully specified)
T32 chain: LRRKSSTRHIHA

[33] = biological target: T33, PCTK2 peptide KKFKRRLSLTLR (SEQ ID NO:185) (not fully specified)
T33 chain: KKFKRRLSLTLR

[34] = biological target: T34, WNK1 peptide RRRRHTMDKDSR (SEQ ID NO:190) (not fully specified)
T34 chain: RRRRHTMDKDSR

[35] = biological target: T35, GPR105 peptide KSSRNSTSVKKK (SEQ ID NO:206) (not fully specified)
T35 chain: KSSRNSTSVKKK

[36] = biological target: T36, beta-arrestin2 peptide HKRNSVRLVIR (SEQ ID NO:191) (not fully specified)
T36 chain: HKRNSVRLVIR

[37] = biological target: T37, WNK1 peptide RRRRPTKSKGSK (SEQ ID NO:198) (not fully specified)
T37 chain: RRRRPTKSKGSK

B1: PKC-theta (protein)
chain: MSPFLRIGLSNFDCGSCQSCQGEAVNPYCAVLVKEYVESENGQMYIQKKPTMYPPWDSTFDAHINKGRVMQIIVKGKNVDLISETTVELYSLAERCRKNNGKTEIWLELKPQGRMLMNARYFLEMSDTKDMNEFETEGFFALHQRRGAIKQAKVHHVKCHEFTATFFPQPTFCSVCHEFVWGLNKQGYQCRQCNAAIHKKCIDKVIAKCTGSAINSRETMFHKERFKIDMPHRFKVYNYKSPTFCEHCGTLLWGLARQGLKCDACGMNVHHRCQTKVANLCGINQKLMAEALAMIESTQQARCLRDTEQIFREGPVEIGLPCSIKNEARPPCLPTPGKREPQGISWESPLDEVDKMCHLPEPELNKERPSLQIKLKIEDFILHKMLGKGSFGKVFLAEFKKTNQFFAIKALKKDVVLMDDDVECTMVEKRVLSLAWEHPFLTHMFCTFQTKENLFFVMEYLNGGDLMYHIQSCHKFDLSRATFYAAEIILGLQFLHSKGIVYRDLKLDNILLDKDGHIKIADFGMCKENMLGDAKTNTFCGTPDYIAPEILLGQKYNHSVDWWSFGVLLYEMLIGQSPFHGQDEEELFHSIRMDNPFYPRWLEKEAKDLLVKLFVREPEKRLGVRGDIRQHPLFREINWEELERKEIDPPFRPKVKSPFDCSNFDKEFLNEKPRLSFADRALINSMDQNMFRNFSFMNPGMERLIS
[1]
  Peptide phosphorylation by PKC-theta: 0
[2]
  in vitro phosphorylation (% of best substrate): 13
[3]
  in vitro phosphorylation (% of best substrate): 98
[4]
  in vitro phosphorylation (% of best substrate): 85
[5]
  in vitro phosphorylation (% of best substrate): 92
[6]
  in vitro phosphorylation (% of best substrate): 26
[7]
  in vitro phosphorylation (% of best substrate): 13
[8]
  in vitro phosphorylation (% of best substrate): 27
[9]
  in vitro phosphorylation (% of best substrate): 50
[10]
  in vitro phosphorylation (% of best substrate): 34
[11]
  in vitro phosphorylation (% of best substrate): 24
[12]
  in vitro phosphorylation (% of best substrate): 25
[13]
  in vitro phosphorylation (% of best substrate): 35
[14]
  in vitro phosphorylation (% of best substrate): 12
[15]
  in vitro phosphorylation (% of best substrate): 100
[16]
  in vitro phosphorylation (% of best substrate): 55
[17]
  in vitro phosphorylation (% of best substrate): 80
[18]
  in vitro phosphorylation (% of best substrate): 11
[19]
  in vitro phosphorylation (% of best substrate): 100
[20]
  in vitro phosphorylation (% of best substrate): 35
[21]
  in vitro phosphorylation (% of best substrate): 54
[22]
  in vitro phosphorylation (% of best substrate): 66
[23]
  in vitro phosphorylation (% of best substrate): 32
[24]
  in vitro phosphorylation (% of best substrate): 83
[25]
  in vitro phosphorylation (% of best substrate): 62
[26]
  in vitro phosphorylation (% of best substrate): 44
[27]
  in vitro phosphorylation (% of best substrate): 86
[28]
  in vitro phosphorylation (% of best substrate): 65
[29]
  in vitro phosphorylation (% of best substrate): 18
[30]
  in vitro phosphorylation (% of best substrate): 17
[31]
  in vitro phosphorylation (% of best substrate): 66
[32]
  in vitro phosphorylation (% of best substrate): 48
[33]
  in vitro phosphorylation (% of best substrate): 51
[34]
  in vitro phosphorylation (% of best substrate): 40
[35]
  in vitro phosphorylation (% of best substrate): 19
[36]
  in vitro phosphorylation (% of best substrate): 38
[37]
  in vitro phosphorylation (% of best substrate): 28
